The series deals with the molecule itself. As to the kind of experiment: negative-stain transmission elect.

The values that follow come from article PMC8005036 (Vaccines, 2021).

B1: LS-SpyTag (Aquifex aeolicus lumazine synthase multimeric protein scaffold particle with SpyTag) (other)
chain: MQIYEGKLTAEGLRFGIVASRFNHALVDRLVEGAIDAIVRHGGREEDITLVRVPGSWEIPVAAGELARKEDIDAVIAIGVLIRGATPHFDYIASEVSKGLANLSLELRKPITFGVITADTLEQAIERAGTKHGNKGWEAALSAIEMANLFKSLRGGGGSGGGGSGGGGSAHIVMVDAYKPTK
notes: also called LS-ST; LS-MPSPs; copies: 60
On to B1, for which the binding result is on record as “binds”.
